# Measurements taken from patent US20240067748A1.
# What was measured:
# [1] = molecular target: human Trop2 on cells (human) (UniProt P09758); test: flow cytometry on BxPC-3 tumor cells (second panel of the table); negative control
# [2] = molecular target: monkey Trop2 on CHO-K1 cells (monkey); test: flow cytometry on CHO-K1/monkey Trop2 cells; negative control
# [3] = molecular target: monkey Trop2 on CHO-K1 cells (monkey); test: flow cytometry on CHO-K1/monkey Trop2 cells (second run); negative control
# [4] = molecular target: human Trop2 on cells (human) (UniProt P09758); test: flow cytometry on BxPC-3 tumor cells; negative control
# Chain of monkey Trop2 on CHO-K1 cells (monkey) (A0A2K5 entry or part of it limits assumed): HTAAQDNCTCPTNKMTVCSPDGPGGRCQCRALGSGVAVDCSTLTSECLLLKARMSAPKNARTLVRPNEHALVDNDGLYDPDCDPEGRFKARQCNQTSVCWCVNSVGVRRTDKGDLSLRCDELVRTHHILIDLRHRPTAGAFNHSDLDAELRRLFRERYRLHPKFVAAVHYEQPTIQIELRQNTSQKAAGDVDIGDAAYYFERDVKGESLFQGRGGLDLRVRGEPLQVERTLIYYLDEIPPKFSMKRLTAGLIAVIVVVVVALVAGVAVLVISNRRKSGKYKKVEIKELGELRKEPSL
# Chain of human Trop2 on cells (human) (P09758 27-323): as the sequence (A0A2K5 entry or part of it limits assumed) above, with V36M, E46K, N67S, V204I, V266M, S272T counted along it
substance,measurement,setting,value
hIgG1 (antibody),Maximum MFI value,[1],670 MFI
same,EC50,[2],1890 nM
same,Maximum MFI value,[2],277 MFI
same,Maximum MFI value,[3],109 MFI
same,Maximum MFI value,[4],77 MFI
